Assay: soluble on expression in E. coli; label from the status in PepcDB or PDB records

MAVYRTVQVNFWQDDFVLDLTPEERYFYVYLLTCSKTTQCGIFPFPKRLAEMETGYNRETVDKLVQRFVDYGKILYDAETRELFVLNWLRYNPVTNTNVEKCVLRELKGVKNKEFVHMFLQKCVEEELNVPMLLAHFGMPSDLAVDDVEPVCEEAEEEEVIEEETGSRVFSFYEQHFGSLSPHTVEELSAWMEDLSEELVLKALQIAFENNKRTVAYVKGILRGWHGKGFTKVSEVEADTASFRKKDLSVSTGETEEFLARCEEWEKNAPSEEELQRFLAERGWRP
soluble on expression in E. coli: soluble

MGSDKIHHHHHHMREIAASRISAVLAELIVKISTELGEDILTALHKAYEAEESPAGRDILQSLLENARIAKEKKIPLCQDTGTAIVFAEVGQEVHVTGNFTDAINLGVRQGYEQAYLRKSIVSHPFSKRINTNDNTPAVIHTEIVPGDRLKISFMAKGSGAENMSRLFMLKPGVGREGVIEAVLETVEKAGGSPCPPIIIGLGVGATAEKAMFMAKKALLRPLGITHTDPEVAALETEVLKQVNKLGIGPLGLGGRVTALGVMAETAPTHIASLPVAVNLQCHSARHGEAVL
soluble on expression in E. coli: not soluble

MKTTPIPLRRDIILDGKWCAAMLKELESLYEGDIVINGQPEHPEDYEWFYTADGDEIGIAKHRLTEQERRLLALFFTPAERRREPESEEERAWKRWMATGDPAALARLAAPYCRFIHFTASRPIANKEEFADAVRGLFSSPVAIVWEQDRRGLIVEAKQKRTTEPPSLADMAEALAADFYTALHLLIGPIRSVDERLYESFLLEKECFSAARRFWPKRTVYEWEDVIPLPLFEEGAVSEKARRTLSFLDGFDEEEVRAMETFLQCNLNVSMAAKKLYMHRNSLQYRIDKWAEQTGVDIKRFKGAAAVYLAILHRRRS
soluble on expression in E. coli: not soluble

MGHHHHHHGGHMSLEEVLEAAEKIRSMEVRGAARIARFAAETLMKFAEKASDEKFDEEMRFAAETLLNTRPTAVSLYNAINYVMRYSGESVEEKRQSVIRRAREFINWVETAQRKIGEIGEKRIKDGYTVMTHCNSSAALSVIKKAHENGKRVEVIATESRPRWQGHLTVKQLREAGIEVTLIVDSAVRYFINEVDCVVVGADTITANGALINKIGTSQIALAAKEARVPFMVAAETYKFSPKTLFGELVVIEERDAREVAPEEILKLGVKVRNPAFDVTPRDYIDVIITEIGAIPPEMAYIVITERLGYAGIEEEEITLNSRHFDEGGS
soluble on expression in E. coli: soluble

MPLPIAAPPILASTLTLLLATTPTAAALTPEQHAAALVAQMTRQEKIAQTMNAAPAIPRLGIPAYDWWSEGLHGIARNGYATVFPQAIGLAASWNTDLLQHVGTVTSTEARAKFNLTGGPGKDHPRYAGLTLWSPNINIFRDPRWGRGMETYGEDPYLTSQLAVSFIRGLQGDTPDHPRTIATPKHFAVHSGPEQGRHSFDVDVSAYDLEATYTPAFRAAIVDGHAGSVMCAYNALHGTPACASDWLLNTRLRNDWGFNGFVVSDCDAIEDMTRFHFFRQDNASASAAALKSGNDLNCGNTYRDLNQAIARGDIDESTLDQALIRLFTARQRLGTLQPREHDPYAAIGIK
soluble on expression in E. coli: not soluble

MSLTNNLTTKASLVSSAFSPVLVVGKKKELRQPVKIKAVNWHHKKRPVELQVGNFPPERYVLSPGINNIETSIPEVTAPCELPIILKEQGKTVSKINEKATPVKKWTVYLVQHTHTDIGYTKPQTEILSEHLRYIDYAIEYCEQTKDYTNDAKFRWTCESAWAVDEYLKNRPEEQVNKLKKYIAEGQIEVASMYFNMSEIVDENSFKTFLQPVKEFRKHGIPSALAMQNDVNGIAWCLADYLPDLGIKYLWMGEHHYKSQVPFNMPTVFQWESPSGKPILTYRADHYNTGNFWGIEQGDIQKTEPKLLHYLSELERKHYPFDAVGVQYSGYFTDNSPPSIIECKLIREWNEKYAYPKLRSATASEFMDYVTERYGDKIPAYRAEGHHHHHH
soluble on expression in E. coli: soluble

MGSDKIHHHHHHMKIAISGKGGVGKTTLAATLAYLFARDGYRVTAIDCDADINLPSALGVKEKPKPLSELHEIIEKRVVGPMGTYKLNPKVDDVFEEYSVYNEDGVRVLVLGTIEKGGEGCFCPENAFLRAILRHAIFKREDVLILDMEAGIEHLGRGTARGVDLLIAVVEPGTRAVETLERIEKLGRDIGIERIAVVVNKFIESERARELISGIKYPILGVIHYDQCFVRADLENVPPYTVCDLKPFEEIKRRIEEFVQ
soluble on expression in E. coli: not soluble

MAHHHHHHMVLHIYHAAVGEKEFQFSTNINKLTQETYELDVNEAIEEVSSTILEQLTGEDALCCECKAAPATRLIHHTMLFAETFPPRVEDLPQPVCNSANCEAVAKSRYLMDMEDATTAQGMPSPNGCFHCHKGARGAATVPLQRCSRCKVAKYCSVECQKADWKVHKQVCAPG
soluble on expression in E. coli: not soluble

MSLAQPCAIIDLETTGGNIARDRITEVGMVLIDGERVERLSWLVNPGQPIPPFIENMTGISNEMVAGAPPFSAQADELLDRLQGRLLLAHNARFDYGFLKNEFRRHGLRFQARALCTVKLSRRLYPQHFKHSLDSLIARHGIDMPERHRALADAEAVYRFIRIAEAELGEDRVAHEAAQLLSQPAELSSLPAELQQQIEEGHHHHHH
soluble on expression in E. coli: not soluble

MGSDKIHHHHHHMNKYIYLLAVVFGLSSCNDFLELSPTNKVIETDYYKTQEDLTEALVAAYDPLKWNAYNAYSSYELVSNIMSDDAETGGSTVSDQPQLQRVNDFTNWVTPTNLPEGLWGRSYEGVNRANIVIEKCPLLPEGTMSAELRDRYVAEAHFLRVFYYFQLWRFFGYIPYYETNLGLDDITTVPQLQPDEVYAKLIEDLDNNVIGKLPKVVPANEKGRATNGAAIAMKARIVLYQNDDTKMKEIASQLKELITDPAYQYDLIPDYKVLFDDEYEWCKESVFEVNYTEIGNSNDWAGKANQGNSDIIMLGARGLKDPNNVYVEGWGFAPVTKALNDAFLPDDPRKWTTIIDHEEFRAEGGTISSDVNQYTGYSVRKYHPRAGYSSTVGTEALNYKNNYRVIRFSDILLMASEALLRSGGSVGEAQDYYARVVKRAMGDDYKVPTVSLDNIYKERRYEFAMEGIRYWDLVRTNQAKDFIKGWDDTKKYLPIPQSEIDKSDGHLVQNPHF
soluble on expression in E. coli: not soluble

MAEQSDEAVKYYTLEEIQKHNHSKSTWLILHHKVYDLTKFLEEHPGGEEVLREQAGGDATENFEDVGHSTDAREMSKTFIIGELHPDDRPKLNKPPEP
soluble on expression in E. coli: soluble

MSSYANHQALAGLTLGKSTDYRDTYDASLLQGVPRSLNRDPLGLKADNLPFHGTDIWTLYELSWLNAKGLPQVAVGHVELDYTSVNLIESKSFKLYLNSFNQTRFNNWDEVRQTLERDLSTCAQGKISVALYRLDELEGQPIGHFNGTCIDDQDITIDNYEFTTDYLENATCGEKVVEETLVSHLLKSNCLITHQPDWGSLQIQYRGRQIDREKLLRYLVSFRHHNEFHEQCVERIFNDLLRFCQPEKLSVYARYTRRGGLDINPWRSNSDFVPSTTRLVRQ
soluble on expression in E. coli: soluble

MSLTDLIDIHCHLLPAVDDGSKSIEETLSLIDLLEEIGVKQHILTPHIMEEYPSNDAIFLRARFEELLAAITPDKASRLRLAAEYMLDVAFLDRLAEPLLTLGDRYILVETSYMAPPIGLMGLLADLRFKGLSPVLAHPERYLYMEEKDYVAIKKQGVMFQLNLFSLFGAYNSSASEKAYALLEAGYYDLIGTDIHHLQPIARLLSEASLPPDLEGKIKSLVENNTRLFSEGHHHHHH
soluble on expression in E. coli: not soluble

MRTLFIGDLHLSADRLDITQAFNRFLDTELDDADALYILGDLFEVWVGDDLAAPFALELAHKLKQVSQTLPIFFIHGNRDFMLGKRFAEAAGMQLLPEVTCIELYGVKTVILHGDSLCTLDKAYQRFRKLRSFACARWLYSCLPKKRRQAIANKIRSNSQSSNQQKSYVIMDVEPSAVNALFVKTHTTRMIHGHTHRPAIHIVDNACQRIVVGDWYEQGSVLSVSANGVDLKSLPFETTLEHHHHHH
soluble on expression in E. coli: not soluble

MGSDKIHHHHHHMPSIENMIAWMQARKGKVTYSMTSRMGPNSYDCSSSIFFAMIAGGFLSAGSMGNTETLFGMSGTKLKEISRGEVQRGDVFISGTPGGSAGSDGHTGIFLSNGSFIHCSYTHNGIAVDTNDAYMSTRLPHHFYRIVGSGSGNTDNKPQMVTLNVDGQFGNATAKRLQEYFDTAGKDGVISHQYKQTFNQNIYAAQFDSSLTGSNVVKALQRFLGIGQDGLFGQGTIKALQKHLGTTQDGTISPVSDSVRELQRRLNANKL
soluble on expression in E. coli: not soluble

MVRGVFVGLFSKKQSVLVGVDISSTAVKLLQLSRSGNRFKVEHYAVEPLPLNAVAEKGIVEVEQVGEAIRRAVSRSGTKAKFAAAAVAGSAVITKLIPMPAGLDEQDLEAQIEIEATNYIPYPIEEVSLDFEVLGPVPNNTEMVQVLLAASRSENVELRQSALELGGLTAKVIDVEALAVENAFSLIAQELSVGSNALVALIDIGATMSTLNVLHSGRSLYAREQLFGGKQLTDEVMHRYGMTYEEAGQAKRQGGLPQSYEVEVLGPFKDSVIQQISRLLQFFYAGSEYNRVDCIVLAGGCAVIAGLPAMVEERLGVVTVVANPLAQMTLGAKVQAHTLAQDAPALMIATGLALRSFD
soluble on expression in E. coli: not soluble

MGSDKIHHHHHHMKSWPRPCSWACANPETKGRAYRTMSSSPTISPASDTFAAMTDDHRLAEFIREQASATRVVIQARKRLSGGAIQENWLLDLLIEGGPWAGVRRWVLRSDALSALPASLDREQEFAVLQVVYQAGVKVPRPLWLCRDVRVHGRVFFLMEYVPGSAAGRALSTGAGPQGRAQLATQLGANLARLHQVRPPCATLCFLSVPDSSPALATIDAYRRYLDTLADAYPVLEWGLRWCELHAPRSSTLCLLHRDYRTGNYLASEEGLEAVLDWEFTGWGDPCEDLGWFTARCWRFTRPDLEAGGIGQLEDFLRGYHEVSSLCIERSRLHYWQVMATLRWAVIALQQGQRHLSGEEPSLELALTARLLPELELDILHMTGAEAP
soluble on expression in E. coli: not soluble

GMSKPAITLWSDAHFFSPYVLSAWVALQEKGLSFHIKTIDLDSGEHLQPTWQGYGQTRRVPLLQIDDFELSESSAIAEYLEDRFAPPTWERIYPLDLENRARARQIQAWLRSDLMPIREERPTDVVFAGAKKAPLTAEGKASAEKLFAMAEHLLVLGQPNLFGEWCIADTDLALMINRLVLHGDEVPERLVDYATFQWQRASVQRFIALSAKQSG
soluble on expression in E. coli: soluble

MTLPPDAPSRHRLVHALERTADLLDILGGEDFKSRAYRSAARSLEELNEETPELLAREFTGIPKVGKGIAAELSDFARSGTFAPLEAAAGQLPPGLLDLLGVRGLGPKKIRSLWLAGIDSLERLREAAESGELAGLKGFGAKSAATILENVVFLFEARQRQSLRAGLAVAEELAGALTDLSPAPAGDVRRGLETVRAAELTVTGTPDDVLARLPELTVQGDGVLSGDYEGVPVEIACAPAEARGALDLLRSGEHFAGQVQAAAQARGFTLTAGGLSRGDEVLPTPTEAVVFHALDLPFRPAEYREPEHDDLWQTLPDPAELVTVGDLRGMIHTHSTWSDGGASIREMAEATLTLGHEFLGTADHSRAAYYANGLTIERLREQLKEIRELQRAGLPIVAGSEVDILDDGSLDFPDDVLGELDYVVVSVHSNFTLDAARQTERLIRAVSHPLVTVLGHATGRLLLRRPGYALDLDAVLGACEANGTVVEINANAARLDLDWREALRWRERLKFAINTDAHVPGGLRDARYGVMQARKAGLTPAHVVNSLGRAEFLDFVARQRAARGAPGPADRAHHHHHH
soluble on expression in E. coli: soluble

MGSDKIHHHHHHMKVHVLASGSTGNAVLFQFGESKILVDAGISCRRIENGLQAIGTRAGELDAVLLTHEHTDHIKGLDVFIRKYQLPVFARPATWSKIDCRKKFPGECIKELEGTFSLGKVLIEPFAISHDAIDPVGFCFYYGKRKAVIATDLGMVSREVEKALSFSDIAVLESNHDPQMLKNGPYPPYLKKRIEGREGHLSNFDTARLLSTVPRHNPMQVLLAHISQQNNHPMLAQQTVSKIMQDSGCEVGREIGIYPTFPHHGITCTMTRVFAVNAPLFQWADLLAKQDGRGKAN
soluble on expression in E. coli: not soluble

Reference: the DeepSol protein solubility set
